Laboratory results published in ChEMBL document CHEMBL1122571, “Design and synthesis of tetrahedral intermediate analogues as potential dihydroorotase inhibitors” (J Med Chem, 1984).

Tested on: O=C1CC(C(=O)O)NC(=O)N1
Assay: Compound was evaluated for the inhibition of dihydroorotase enzyme from mouse Ehrlich ascites at the concentration of 10 uM and at pH 7.37

Work on “Multifunctional protein CAD (Mus musculus), B2RQC6” yielded a Km of 4 µM.
